From patent US20210032299A1 come the findings set out here.

T1: human glucose-dependent insulinotropic polypeptide (GIP) receptor (human), P48546
T1 chain: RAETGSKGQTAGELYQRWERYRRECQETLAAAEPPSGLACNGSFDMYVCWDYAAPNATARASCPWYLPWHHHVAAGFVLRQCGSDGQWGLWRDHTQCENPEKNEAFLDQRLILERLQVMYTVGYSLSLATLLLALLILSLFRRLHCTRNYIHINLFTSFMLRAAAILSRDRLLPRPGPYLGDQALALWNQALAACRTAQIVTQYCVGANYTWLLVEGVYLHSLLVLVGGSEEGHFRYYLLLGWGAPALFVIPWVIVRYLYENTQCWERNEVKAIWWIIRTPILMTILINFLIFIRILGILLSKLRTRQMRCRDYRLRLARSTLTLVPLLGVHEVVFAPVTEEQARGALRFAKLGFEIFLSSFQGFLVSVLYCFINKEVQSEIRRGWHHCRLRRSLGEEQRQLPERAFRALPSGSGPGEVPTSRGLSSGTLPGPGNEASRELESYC

B1: Example 118 (peptide)
peptide: Y[Aib]EGTFISDYSI[αMeL]LDKIRQ[Aib]DFVEYK([AEEA-AEEA-γGlu-C20 diacid])LEAGPSSGAPPPS-NH2
modifications: N-terminus assumed
SMILES: CC[C@H](C)[C@H](NC(=O)[C@H](CCCCN)NC(=O)[C@H](CC(=O)O)NC(=O)[C@H](CC(C)C)NC(=O)[C@](C)(CC(C)C)NC(=O)[C@@H](NC(=O)[C@H](CO)NC(=O)[C@H](Cc1ccc(O)cc1)NC(=O)[C@H](CC(=O)O)NC(=O)[C@H](CO)NC(=O)[C@@H](NC(=O)[C@H](Cc1ccccc1)NC(=O)[C@@H](NC(=O)CNC(=O)[C@H](CCC(=O)O)NC(=O)C(C)(C)NC(=O)[C@@H](N)Cc1ccc(O)cc1)[C@@H](C)O)[C@@H](C)CC)[C@@H](C)CC)C(=O)N[C@@H](CCCNC(=N)N)C(=O)N[C@@H](CCC(N)=O)C(=O)NC(C)(C)C(=O)N[C@@H](CC(=O)O)C(=O)N[C@@H](Cc1ccccc1)C(=O)N[C@H](C(=O)N[C@@H](CCC(=O)O)C(=O)N[C@@H](Cc1ccc(O)cc1)C(=O)N[C@@H](CCCCNC(=O)COCCOCCNC(=O)COCCOCCNC(=O)CC[C@H](NC(=O)CCCCCCCCCCCCCCCCCCC(=O)O)C(=O)O)C(=O)N[C@@H](CC(C)C)C(=O)N[C@@H](CCC(=O)O)C(=O)N[C@@H](C)C(=O)NCC(=O)N1CCC[C@H]1C(=O)N[C@@H](CO)C(=O)N[C@@H](CO)C(=O)NCC(=O)N[C@@H](C)C(=O)N1CCC[C@H]1C(=O)N1CCC[C@H]1C(=O)N1CCC[C@H]1C(=O)N[C@@H](CO)C(N)=O)C(C)C
B2: Example 109 (peptide)
peptide: Y[Aib]EGTFISDYSI[αMeL]LDKIHQ[Aib]DFVE[4Pal]K([AEEA-AEEA-γGlu-C20 diacid])LEGGPSSGAPPPS-NH2
modifications: N-terminus assumed
SMILES: CC[C@H](C)[C@H](NC(=O)[C@H](CCCCN)NC(=O)[C@H](CC(=O)O)NC(=O)[C@H](CC(C)C)NC(=O)[C@](C)(CC(C)C)NC(=O)[C@@H](NC(=O)[C@H](CO)NC(=O)[C@H](Cc1ccc(O)cc1)NC(=O)[C@H](CC(=O)O)NC(=O)[C@H](CO)NC(=O)[C@@H](NC(=O)[C@H](Cc1ccccc1)NC(=O)[C@@H](NC(=O)CNC(=O)[C@H](CCC(=O)O)NC(=O)C(C)(C)NC(=O)[C@@H](N)Cc1ccc(O)cc1)[C@@H](C)O)[C@@H](C)CC)[C@@H](C)CC)C(=O)N[C@@H](Cc1c[nH]cn1)C(=O)N[C@@H](CCC(N)=O)C(=O)NC(C)(C)C(=O)N[C@@H](CC(=O)O)C(=O)N[C@@H](Cc1ccccc1)C(=O)N[C@H](C(=O)N[C@@H](CCC(=O)O)C(=O)N[C@@H](Cc1ccncc1)C(=O)N[C@@H](CCCCNC(=O)COCCOCCNC(=O)COCCOCCNC(=O)CC[C@H](NC(=O)CCCCCCCCCCCCCCCCCCC(=O)O)C(=O)O)C(=O)N[C@@H](CC(C)C)C(=O)N[C@@H](CCC(=O)O)C(=O)NCC(=O)NCC(=O)N1CCC[C@H]1C(=O)N[C@@H](CO)C(=O)N[C@@H](CO)C(=O)NCC(=O)N[C@@H](C)C(=O)N1CCC[C@H]1C(=O)N1CCC[C@H]1C(=O)N1CCC[C@H]1C(=O)N[C@@H](CO)C(N)=O)C(C)C
B3: Example 110 (peptide)
peptide: Y[Aib]EGTFISDYSI[αMeL]LDKIHQ[Aib]DFVE[4Pal]K([AEEA-AEEA-γGlu-C18 diacid])LEGGPSSGAPPPS-NH2
modifications: N-terminus assumed
SMILES: CC[C@H](C)[C@H](NC(=O)[C@H](CCCCN)NC(=O)[C@H](CC(=O)O)NC(=O)[C@H](CC(C)C)NC(=O)[C@](C)(CC(C)C)NC(=O)[C@@H](NC(=O)[C@H](CO)NC(=O)[C@H](Cc1ccc(O)cc1)NC(=O)[C@H](CC(=O)O)NC(=O)[C@H](CO)NC(=O)[C@@H](NC(=O)[C@H](Cc1ccccc1)NC(=O)[C@@H](NC(=O)CNC(=O)[C@H](CCC(=O)O)NC(=O)C(C)(C)NC(=O)[C@@H](N)Cc1ccc(O)cc1)[C@@H](C)O)[C@@H](C)CC)[C@@H](C)CC)C(=O)N[C@@H](Cc1c[nH]cn1)C(=O)N[C@@H](CCC(N)=O)C(=O)NC(C)(C)C(=O)N[C@@H](CC(=O)O)C(=O)N[C@@H](Cc1ccccc1)C(=O)N[C@H](C(=O)N[C@@H](CCC(=O)O)C(=O)N[C@@H](Cc1ccncc1)C(=O)N[C@@H](CCCCNC(=O)COCCOCCNC(=O)COCCOCCNC(=O)CC[C@H](NC(=O)CCCCCCCCCCCCCCCCC(=O)O)C(=O)O)C(=O)N[C@@H](CC(C)C)C(=O)N[C@@H](CCC(=O)O)C(=O)NCC(=O)NCC(=O)N1CCC[C@H]1C(=O)N[C@@H](CO)C(=O)N[C@@H](CO)C(=O)NCC(=O)N[C@@H](C)C(=O)N1CCC[C@H]1C(=O)N1CCC[C@H]1C(=O)N1CCC[C@H]1C(=O)N[C@@H](CO)C(N)=O)C(C)C
B4: Example 108 (peptide)
peptide: Y[Aib]EGTFISDYSI[αMeL]LD[Orn]IHQ[Aib]DFVE[4Pal]K([AEEA-AEEA-γGlu-C20 diacid])LEGGPSSGAPPPS-NH2
modifications: N-terminus assumed
SMILES: CC[C@H](C)[C@H](NC(=O)[C@H](CCCN)NC(=O)[C@H](CC(=O)O)NC(=O)[C@H](CC(C)C)NC(=O)[C@](C)(CC(C)C)NC(=O)[C@@H](NC(=O)[C@H](CO)NC(=O)[C@H](Cc1ccc(O)cc1)NC(=O)[C@H](CC(=O)O)NC(=O)[C@H](CO)NC(=O)[C@@H](NC(=O)[C@H](Cc1ccccc1)NC(=O)[C@@H](NC(=O)CNC(=O)[C@H](CCC(=O)O)NC(=O)C(C)(C)NC(=O)[C@@H](N)Cc1ccc(O)cc1)[C@@H](C)O)[C@@H](C)CC)[C@@H](C)CC)C(=O)N[C@@H](Cc1c[nH]cn1)C(=O)N[C@@H](CCC(N)=O)C(=O)NC(C)(C)C(=O)N[C@@H](CC(=O)O)C(=O)N[C@@H](Cc1ccccc1)C(=O)N[C@H](C(=O)N[C@@H](CCC(=O)O)C(=O)N[C@@H](Cc1ccncc1)C(=O)N[C@@H](CCCCNC(=O)COCCOCCNC(=O)COCCOCCNC(=O)CC[C@H](NC(=O)CCCCCCCCCCCCCCCCCCC(=O)O)C(=O)O)C(=O)N[C@@H](CC(C)C)C(=O)N[C@@H](CCC(=O)O)C(=O)NCC(=O)NCC(=O)N1CCC[C@H]1C(=O)N[C@@H](CO)C(=O)N[C@@H](CO)C(=O)NCC(=O)N[C@@H](C)C(=O)N1CCC[C@H]1C(=O)N1CCC[C@H]1C(=O)N1CCC[C@H]1C(=O)N[C@@H](CO)C(N)=O)C(C)C
B5: Example 114 (peptide)
peptide: Y[Aib]EGT[αMePhe(2-F)]ISDYSIALDKIHQ[Aib]DFVE[4Pal]K([AEEA-AEEA-γGlu-C20 diacid])LEQGPSSGAPPPS-NH2
modifications: N-terminus assumed
SMILES: CC[C@H](C)[C@H](NC(=O)[C@H](CO)NC(=O)[C@H](Cc1ccc(O)cc1)NC(=O)[C@H](CC(=O)O)NC(=O)[C@H](CO)NC(=O)[C@@H](NC(=O)[C@](C)(Cc1ccccc1F)NC(=O)[C@@H](NC(=O)CNC(=O)[C@H](CCC(=O)O)NC(=O)C(C)(C)NC(=O)[C@@H](N)Cc1ccc(O)cc1)[C@@H](C)O)[C@@H](C)CC)C(=O)N[C@@H](C)C(=O)N[C@@H](CC(C)C)C(=O)N[C@@H](CC(=O)O)C(=O)N[C@@H](CCCCN)C(=O)N[C@H](C(=O)N[C@@H](Cc1c[nH]cn1)C(=O)N[C@@H](CCC(N)=O)C(=O)NC(C)(C)C(=O)N[C@@H](CC(=O)O)C(=O)N[C@@H](Cc1ccccc1)C(=O)N[C@H](C(=O)N[C@@H](CCC(=O)O)C(=O)N[C@@H](Cc1ccncc1)C(=O)N[C@@H](CCCCNC(=O)COCCOCCNC(=O)COCCOCCNC(=O)CC[C@H](NC(=O)CCCCCCCCCCCCCCCCCCC(=O)O)C(=O)O)C(=O)N[C@@H](CC(C)C)C(=O)N[C@@H](CCC(=O)O)C(=O)N[C@@H](CCC(N)=O)C(=O)NCC(=O)N1CCC[C@H]1C(=O)N[C@@H](CO)C(=O)N[C@@H](CO)C(=O)NCC(=O)N[C@@H](C)C(=O)N1CCC[C@H]1C(=O)N1CCC[C@H]1C(=O)N1CCC[C@H]1C(=O)N[C@@H](CO)C(N)=O)C(C)C)[C@@H](C)CC
B6: Example 111 (peptide)
peptide: Y[Aib]EGTFISDYSI[αMeL]LD[Orn]IHQ[Aib]DFVE[4Pal]K([AEEA-AEEA-γGlu-C18 diacid])LEGGPSSGAPPPS-NH2
modifications: N-terminus assumed
SMILES: CC[C@H](C)[C@H](NC(=O)[C@H](CCCN)NC(=O)[C@H](CC(=O)O)NC(=O)[C@H](CC(C)C)NC(=O)[C@](C)(CC(C)C)NC(=O)[C@@H](NC(=O)[C@H](CO)NC(=O)[C@H](Cc1ccc(O)cc1)NC(=O)[C@H](CC(=O)O)NC(=O)[C@H](CO)NC(=O)[C@@H](NC(=O)[C@H](Cc1ccccc1)NC(=O)[C@@H](NC(=O)CNC(=O)[C@H](CCC(=O)O)NC(=O)C(C)(C)NC(=O)[C@@H](N)Cc1ccc(O)cc1)[C@@H](C)O)[C@@H](C)CC)[C@@H](C)CC)C(=O)N[C@@H](Cc1c[nH]cn1)C(=O)N[C@@H](CCC(N)=O)C(=O)NC(C)(C)C(=O)N[C@@H](CC(=O)O)C(=O)N[C@@H](Cc1ccccc1)C(=O)N[C@H](C(=O)N[C@@H](CCC(=O)O)C(=O)N[C@@H](Cc1ccncc1)C(=O)N[C@@H](CCCCNC(=O)COCCOCCNC(=O)COCCOCCNC(=O)CC[C@H](NC(=O)CCCCCCCCCCCCCCCCC(=O)O)C(=O)O)C(=O)N[C@@H](CC(C)C)C(=O)N[C@@H](CCC(=O)O)C(=O)NCC(=O)NCC(=O)N1CCC[C@H]1C(=O)N[C@@H](CO)C(=O)N[C@@H](CO)C(=O)NCC(=O)N[C@@H](C)C(=O)N1CCC[C@H]1C(=O)N1CCC[C@H]1C(=O)N1CCC[C@H]1C(=O)N[C@@H](CO)C(N)=O)C(C)C

Starred links: 1 amine or outer side, 2 acyl side, 3 side chain; linkers in the order of their positions; H or OH if unused. Non-standard residues stand in square brackets, D forms with d. Groups on a side chain read outwards from the residue. No end group written: not given here. *: point of attachment. C20 diacid = O=C(O)CCCCCCCCCCCCCCCCCCC(=O)*; C18 diacid = O=C(O)CCCCCCCCCCCCCCCCC(=O)*; αMePhe(2-F) = C[C@](N)(Cc1ccccc1F)C(=O)O; γGlu = O=C(O)[C@H](CCC(=O)[*:2])N[*:1]; 4Pal = N[C@@H](Cc1ccncc1)C(=O)O; αMeL = CC(C)C[C@](C)(N)C(=O)O; Orn = NCCC[C@H](N)C(=O)O; AEEA = NCCOCCOCC(=O)O; Aib = CC(C)(N)C(=O)O

The test has as its target T1, human glucose-dependent insulinotropic …. The test can be described thus: SPA, displacement of [125I]-GIP from hGIPR membranes, 0.1% bacitracin. For orientation: Displacement assays read how much labelled ligand stays bound in the presence of the test substance.
What is called Ki is the dissociation constant of the complex between target and ligand, obtained from inhibition or displacement. High values mean a looser hold on the target, low ones a stronger hold on the target. In the case of B1, the inhibition constant Ki is 0.0696 nM.
B2 displayed a Ki of 0.117 nM.
Molecule B3 gave an inhibition constant Ki of 0.339 nM. Against the preceding molecule, the Ki is about 2.9-fold higher.
B4 came in with a Ki of 0.134 nM.
Take B5: the Ki was found to be 0.121 nM.
B6 registered a Ki of 0.0871 nM.
